Legend:
[1] = tested on: XhoII restriction endonuclease (Xanthomonas campestris pv. holcicola ATCC 13461); assay: cleavage_in_vitro; conditions: 20 mM Tris HCl pH 7.4, 10 mM MgCl2, 37 C; no activity detected from E. coli DH10B extracts
[2] = tested on: XhoI restriction endonuclease (Xanthomonas campestris pv. holcicola ATCC 13461); assay: cleavage_in_vitro; conditions: 50 mM Tris HCl pH 8.1, 10 mM MgCl2, 50 mM NaCl, 37 C; no activity detected from E. coli DH10B extracts

Row | Substance | activity (units per gram of cells) [1] | activity (units per gram of cells) [2]
1 | phage lambda DNA (XhoII/BstYI sites) | 10000 | –
2 | Adenovirus-2 DNA (XhoI sites) | – | 100000
